Laboratory results taken from patent US20100120171A1.

How the values were obtained:
[1] = target: Standard VE-cadherin (standard solutions run with the Bender MedSystems BMS253 kit) (UniProt P33151); experiment: Bender BMS253 ELISA kit; standard VE-cadherin at 5 ng/mL
[2] = target: Standard VE-cadherin (standard solutions run with the Bender MedSystems BMS253 kit) (UniProt P33151); experiment: Bender BMS253 ELISA kit; standard VE-cadherin at 10 ng/mL
[3] = target: Standard VE-cadherin (standard solutions run with the Bender MedSystems BMS253 kit) (UniProt P33151); experiment: Bender BMS253 ELISA kit; standard VE-cadherin at 2.5 ng/mL
[4] = target: Standard VE-cadherin (standard solutions run with the Bender MedSystems BMS253 kit) (UniProt P33151); experiment: Bender BMS253 ELISA kit; standard VE-cadherin at 0.16 ng/mL
[5] = target: Standard VE-cadherin (standard solutions run with the Bender MedSystems BMS253 kit) (UniProt P33151); experiment: Bender BMS253 ELISA kit; standard VE-cadherin at 0.32 ng/mL
[6] = target: Standard VE-cadherin (standard solutions run with the Bender MedSystems BMS253 kit) (UniProt P33151); experiment: Bender BMS253 ELISA kit; standard VE-cadherin at 0.63 ng/mL
[7] = target: Standard VE-cadherin (standard solutions run with the Bender MedSystems BMS253 kit) (UniProt P33151); experiment: Bender BMS253 ELISA kit; standard VE-cadherin at 1.25 ng/mL
[8] = target: Standard VE-cadherin (standard solutions run with the Bender MedSystems BMS253 kit) (UniProt P33151); experiment: Bender BMS253 ELISA kit; standard VE-cadherin at 5 ng/mL; first replicate
[9] = target: Standard VE-cadherin (standard solutions run with the Bender MedSystems BMS253 kit) (UniProt P33151); experiment: Bender BMS253 ELISA kit; standard VE-cadherin at 10 ng/mL; first replicate
[10] = target: Standard VE-cadherin (standard solutions run with the Bender MedSystems BMS253 kit) (UniProt P33151); experiment: Bender BMS253 ELISA kit; standard VE-cadherin at 5 ng/mL; second replicate
[11] = target: Standard VE-cadherin (standard solutions run with the Bender MedSystems BMS253 kit) (UniProt P33151); experiment: Bender BMS253 ELISA kit; standard VE-cadherin at 10 ng/mL; second replicate
[12] = target: Standard VE-cadherin (standard solutions run with the Bender MedSystems BMS253 kit) (UniProt P33151); experiment: Bender BMS253 ELISA kit; standard VE-cadherin at 2.5 ng/mL; first replicate
[13] = target: Standard VE-cadherin (standard solutions run with the Bender MedSystems BMS253 kit) (UniProt P33151); experiment: Bender BMS253 ELISA kit; standard VE-cadherin at 0.16 ng/mL; first replicate
[14] = target: Standard VE-cadherin (standard solutions run with the Bender MedSystems BMS253 kit) (UniProt P33151); experiment: Bender BMS253 ELISA kit; standard VE-cadherin at 0.32 ng/mL; first replicate
[15] = target: Standard VE-cadherin (standard solutions run with the Bender MedSystems BMS253 kit) (UniProt P33151); experiment: Bender BMS253 ELISA kit; standard VE-cadherin at 0.63 ng/mL; first replicate
[16] = target: Standard VE-cadherin (standard solutions run with the Bender MedSystems BMS253 kit) (UniProt P33151); experiment: Bender BMS253 ELISA kit; standard VE-cadherin at 1.25 ng/mL; first replicate
[17] = target: Standard VE-cadherin (standard solutions run with the Bender MedSystems BMS253 kit) (UniProt P33151); experiment: Bender BMS253 ELISA kit; standard VE-cadherin at 2.5 ng/mL; second replicate
[18] = target: Standard VE-cadherin (standard solutions run with the Bender MedSystems BMS253 kit) (UniProt P33151); experiment: Bender BMS253 ELISA kit; standard VE-cadherin at 0.16 ng/mL; second replicate
[19] = target: Standard VE-cadherin (standard solutions run with the Bender MedSystems BMS253 kit) (UniProt P33151); experiment: Bender BMS253 ELISA kit; standard VE-cadherin at 0.32 ng/mL; second replicate
[20] = target: Standard VE-cadherin (standard solutions run with the Bender MedSystems BMS253 kit) (UniProt P33151); experiment: Bender BMS253 ELISA kit; standard VE-cadherin at 0.63 ng/mL; second replicate
[21] = target: Standard VE-cadherin (standard solutions run with the Bender MedSystems BMS253 kit) (UniProt P33151); experiment: Bender BMS253 ELISA kit; standard VE-cadherin at 1.25 ng/mL; second replicate
[22] = target: Standard VE-cadherin (standard solutions run with the Bender MedSystems BMS253 kit) (UniProt P33151); experiment: Bender BMS253 ELISA kit; standard VE-cadherin at 5 ng/mL; OD minus OD at 0 ng/mL
[23] = target: Standard VE-cadherin (standard solutions run with the Bender MedSystems BMS253 kit) (UniProt P33151); experiment: Bender BMS253 ELISA kit; standard VE-cadherin at 10 ng/mL; OD minus OD at 0 ng/mL
[24] = target: Standard VE-cadherin (standard solutions run with the Bender MedSystems BMS253 kit) (UniProt P33151); experiment: Bender BMS253 ELISA kit; standard VE-cadherin at 2.5 ng/mL; OD minus OD at 0 ng/mL
[25] = target: Standard VE-cadherin (standard solutions run with the Bender MedSystems BMS253 kit) (UniProt P33151); experiment: Bender BMS253 ELISA kit; standard VE-cadherin at 0.16 ng/mL; OD minus OD at 0 ng/mL
[26] = target: Standard VE-cadherin (standard solutions run with the Bender MedSystems BMS253 kit) (UniProt P33151); experiment: Bender BMS253 ELISA kit; standard VE-cadherin at 0.32 ng/mL; OD minus OD at 0 ng/mL
[27] = target: Standard VE-cadherin (standard solutions run with the Bender MedSystems BMS253 kit) (UniProt P33151); experiment: Bender BMS253 ELISA kit; standard VE-cadherin at 0.63 ng/mL; OD minus OD at 0 ng/mL
[28] = target: Standard VE-cadherin (standard solutions run with the Bender MedSystems BMS253 kit) (UniProt P33151); experiment: Bender BMS253 ELISA kit; standard VE-cadherin at 1.25 ng/mL; OD minus OD at 0 ng/mL

Sequence of UniProt P33151 (P33151 48-593 limits assumed): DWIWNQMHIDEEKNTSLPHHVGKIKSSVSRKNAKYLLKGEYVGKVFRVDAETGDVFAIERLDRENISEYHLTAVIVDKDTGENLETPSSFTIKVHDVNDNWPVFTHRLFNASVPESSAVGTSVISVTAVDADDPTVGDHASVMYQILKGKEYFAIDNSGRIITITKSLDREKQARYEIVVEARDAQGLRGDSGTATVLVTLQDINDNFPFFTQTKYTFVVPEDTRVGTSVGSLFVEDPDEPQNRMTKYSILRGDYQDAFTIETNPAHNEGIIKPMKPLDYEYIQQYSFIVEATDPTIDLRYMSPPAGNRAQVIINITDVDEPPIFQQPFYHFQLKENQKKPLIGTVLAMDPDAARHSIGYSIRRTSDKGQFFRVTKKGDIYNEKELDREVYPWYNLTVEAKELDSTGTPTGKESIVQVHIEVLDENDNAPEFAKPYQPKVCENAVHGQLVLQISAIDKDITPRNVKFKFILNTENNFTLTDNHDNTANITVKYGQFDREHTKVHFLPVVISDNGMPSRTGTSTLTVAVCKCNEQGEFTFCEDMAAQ

mean OD [1]: 1.17 OD
mean OD [2]: 2.63 OD
mean OD [3]: 0.616 OD
mean OD [4]: 0.154 OD
mean OD [5]: 0.22 OD
mean OD [6]: 0.244 OD
mean OD [7]: 0.413 OD
OD [8]: 1.29 OD
OD [9]: 2.41 OD
OD [10]: 1.05 OD
OD [11]: 2.85 OD
OD [12]: 0.61 OD
OD [13]: 0.145 OD
OD [14]: 0.258 OD
OD [15]: 0.265 OD
OD [16]: 0.371 OD
OD [17]: 0.621 OD
OD [18]: 0.162 OD
OD [19]: 0.181 OD
OD [20]: 0.222 OD
OD [21]: 0.454 OD
corr. mean (OD) [22]: 1.06 OD
corr. mean (OD) [23]: 2.52 OD
corr. mean (OD) [24]: 0.508 OD
corr. mean (OD) [25]: 0.046 OD
corr. mean (OD) [26]: 0.112 OD
corr. mean (OD) [27]: 0.136 OD
corr. mean (OD) [28]: 0.305 OD
Substance: mAb provided in the human soluble VE-cadherin ELISA kit (Bender MedSystems, reference BMS253) (antibody)
